Experimental data from US20160282364A1, “ASSAY FOR INSULIN-DEGRADING ENZYME (IDE) INHIBITORS” (PRESIDENT AND FELLOWS OF HARVARD COLLEGE, priority 2013, published 2016).

Target: IDE (UniProt P14735)
Test: enzyme inhibition (double inhibitor plot); 1x IC50

IC50: 10 µM
Substance: Bacitracin
